The record followed here is patent publication US6428997.

The test system of series [1] is T1, leucyl oligopeptide of SEQ ID NO: 2.
T1 sequence: LFPTEPS

Series [2] relates to T2, methionyl oligopeptide of SEQ ID NO: 1 (Met-Phe-Pro-Thr-Glu-Pro-Ser).
T2 sequence: MFPTEPS

Series [3] concerns the target methionyl human growth hormone (UniProt P01241).

Chain of methionyl human growth hormone (P01241 other isoform, or with tags, fused parts or gaps): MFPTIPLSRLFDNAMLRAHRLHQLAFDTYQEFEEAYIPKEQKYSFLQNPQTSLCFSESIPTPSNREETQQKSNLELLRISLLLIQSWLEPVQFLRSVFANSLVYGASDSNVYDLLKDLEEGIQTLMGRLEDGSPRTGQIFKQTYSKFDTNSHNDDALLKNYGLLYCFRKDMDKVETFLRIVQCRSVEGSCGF

Turning to “aminopeptidase from Bacillus licheniformis (purified from Bacillus licheniformis ATCC 12759)”, in series [1], the Kcat/Km is 1.63e+06 M⁻¹ s⁻¹, the Km (usually the substrate concentration at which the rate is half of its maximum) stood at 172 µM and the kcat (usually the maximal rate divided by the concentration of active sites) was 276 s⁻¹. Further, in series [2], the Kcat/Km turned out to be 56100 M⁻¹ s⁻¹, the Km stood at 387 µM and the kcat is 21.1 s⁻¹. Also, in series [3], the “removal of N-terminal methionine (N-terminal sequencing of the recovered HGH)” value is given as “remove N-terminal methionine of methionyl HGH completely” and the “removal of N-terminal methionine, large scale (N-terminal sequencing of the recovered HGH)” value was “HGH produced by the above process had phenylalanine at the N-terminus due to methionine removal”.
